Results on 78 sequences are retold here after the supplement of paper PMC10126150.

± gives the standard deviation of the averaged measurements.
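Also: ATP exposure 15 min at 22 °C before imaging.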

This series deals with ATP. Briefly: switch fluorescence ratio, 500 uM ATP over buffer (Cy3 cluster intensity, sum of 5 cycles each) (fold (ratio)); higher = stronger signal-on switching upon ATP binding; sequences stand for … in TCGTCGGCAGCGTCAGATGTGTATAAGAGACAGTTTTTTTTTTTTTTTTTTTTTTTTT…TC. The settings on record: aptamer strand: ATP DNA aptamer (quencher-CACCTGGGGGAGTATTGCGGAGGAAGG + anchor), 100 nM annealed; ATP concentration: 500 uM. The method in brief:
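Values give the fluorescence ratio for each switch-domain sequence, averaged from per-cluster ratios of summed target-cycle to summed buffer-cycle Cy3 intensity. The Cy3-labelled switching-strand clusters sat on a modified Illumina MiSeq flow-cell, were annealed to 100 nM quencher-labelled ATP aptamer, and were imaged in selection buffer, then after 15 min with 500 uM ATP at 22 °C. Five cycles ran with NaOH stripping and re-annealing between them, and clusters outside 100-1000 RFU were excluded.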
With GAGGGGCGAT, the switch fluorescence ratio was 0.998 ± 0.013.
The value for AAAAGGGGCA was 1.04 ± 0.051; that for AAGGGGAGTC was 1.01 ± 0.0044; that for CTAACATCCG was 1.06 ± 0.025.
The value for GATTGTCCTT was 0.9956 ± 0.0048; that for GGGGGGATCT was 1.004 ± 0.0098; that for GGAAGCTTCC was 1.127 ± 0.0032.
CTGGGTGGCG: the switch fluorescence ratio was 1.01 ± 0.069.
Regarding CGCAGGGTGG, the switch fluorescence ratio worked out at 1.05 ± 0.022.
The figure for GGGGGAGAGC is 1.03 ± 0.043.
The figure for AAAGAATTCG is 0.974 ± 0.037; for TCTAAATAGC it is 1.05 ± 0.038; for AGAGGGTTAT it is 0.985 ± 0.038.
The value for TTTTATTCAG was 1 ± 0.03.
With AAGTTTGTTA, the switch fluorescence ratio amounted to 0.995 ± 0.042.
Take GAAAACAGTT: the switch fluorescence ratio came out at 0.9951 ± 0.0053.
GCTCCAGGGG: the switch fluorescence ratio came to 2.88 ± 2.5.
Consider GCTGGGAGGC, for which the switch fluorescence ratio amounted to 0.947 ± 0.071.
For GATGTCCCCA, the switch fluorescence ratio worked out at 0.959 ± 0.013.
As to AAGGAGTTTT, the switch fluorescence ratio amounted to 0.973 ± 0.034.
As for TTGGCCCCCA, the switch fluorescence ratio amounted to 1.01 ± 0.017.
The figure for TGGCGGTTGC is 0.955 ± 0.013; for AATTATCGAC it is 1 ± 0.031; for TTTTGTTTGC it is 1.02 ± 0.03.
The value for TACCCGGGGT was 0.9827 ± 0.0097; that for AGGGGGTGGC was 0.986 ± 0.048; that for TGATTTGTTT was 1 ± 0.04.
The figure for AGTCTTCTGG is 1.01 ± 0.026; for GGGAGATGAC it is 1.01 ± 0.022.
Turning to GCTGGAGGGG, the switch fluorescence ratio was 0.985 ± 0.018.
As for CGTCTGTGGG, the switch fluorescence ratio turned out to be 0.9844 ± 0.0041.
For the sequence AATATGCTTT, the switch fluorescence ratio amounted to 1.006 ± 0.0048.
Regarding TCATGATATG, the switch fluorescence ratio worked out at 0.978 ± 0.027.
The figure for TCAGCTCTTC is 0.987 ± 0.042.
The value for CCCGCTAAGG was 1.19 ± 0.028.
For CAGTGGGCGG, the switch fluorescence ratio amounted to 1.06 ± 0.07.
For CGTGGGCGGT, the switch fluorescence ratio is 0.9807 ± 0.0031.
The figure for ATGAGGGGGA is 0.997 ± 0.026; for GATAGGGGAT it is 0.986 ± 0.031; for AAATGGGACC it is 1.012 ± 0.0042.
The figure for CAATTTTAGG is 0.987 ± 0.018; for GCAAATAAGT it is 1.02 ± 0.038.
For TTTGGCAAGG, the switch fluorescence ratio is 1.01 ± 0.054.
For AAGGTCCGCG, the switch fluorescence ratio is 1.08 ± 0.027.
With GAGGGTCCTA, the switch fluorescence ratio was determined as 0.9994 ± 0.0054.
As to GAGTGGGTTA, the switch fluorescence ratio came to 1.03 ± 0.012.
In the case of AGGTTGGACT, the switch fluorescence ratio was determined as 0.99145 ± 0.00056.
Consider GGTTATGAAT, for which the switch fluorescence ratio was determined as 1 ± 0.015.
The figure for GAGTATTTTG is 0.953 ± 0.026; for CTCGTTGAAA it is 0.9779 ± 0.0065.
The value for ATTAATATGT was 0.999 ± 0.023.
Turning to TACTGCAGAT, the switch fluorescence ratio is 1.002 ± 0.0025.
The value for GTTGGGGCTT was 1.021 ± 0.002.
As to GGGGGCATTT, the switch fluorescence ratio worked out at 1 ± 0.031.
With CGAAAGCGGC, the switch fluorescence ratio turned out to be 1.23 ± 0.014.
Regarding CGGCGGGGTG, the switch fluorescence ratio is 1.04 ± 0.055.
TATGAAGCCT: the switch fluorescence ratio is 1.16 ± 0.02.
The figure for GTACGGGAAG is 1.19 ± 0.1.
The value for AATTAGCATC was 1.06 ± 0.044; that for ATATGTGATG was 0.997 ± 0.021; that for GATTTTGAGC was 0.9986 ± 0.0048.
For TGGGCTAATT, the switch fluorescence ratio worked out at 1.02 ± 0.04.
As to ACTGGGGCGG, the switch fluorescence ratio worked out at 1.022 ± 0.0063.
The value for CGTTGGAGCG was 1 ± 0.03.
GTATGCGGGG: the switch fluorescence ratio came out at 0.996 ± 0.02.
The value for ATCCGTATGT was 1.05 ± 0.014.
With GTTCTCAGTG, the switch fluorescence ratio is 1.01 ± 0.03.
As to CACAGTGAGT, the switch fluorescence ratio was determined as 0.997 ± 0.021.
The value for TAATTGAGCA was 0.99 ± 0.019.
In the case of CGGGACCTGG, the switch fluorescence ratio was 0.958 ± 0.077.
The value for ACGGGACGCA was 1.089 ± 0.0019.
Regarding CGGTGACTGC, the switch fluorescence ratio came out at 1.02 ± 0.099.
The figure for TCGTTTTTGA is 0.985 ± 0.039; for ATTAGTAAAG it is 0.9972 ± 0.0073.
The value for ACGGTGATGG was 1.018 ± 0.0071; that for AAACCGACAT was 1.27 ± 0.03; that for CTACTGTGGG was 0.9651 ± 0.006.
The value for AATGCCTCTT was 1.013 ± 0.0028.
